Measurements reported in US5354664.

Key:
bovine thrombin (bovine) [1] = target: bovine thrombin (bovine) (UniProt P00735)
bovine thrombin (bovine) [2] = target: bovine thrombin (bovine) (UniProt P00735); remark: listed apart in the source
bovine thrombin (bovine) [3] = target: bovine thrombin (bovine) (UniProt P00735); remark: listed apart in the source
human fibrinogen (human) = human fibrinogen (human) (UniProt P02671)
[4] = target: bovine fibrinogen (bovine)

Sequence of human urine derived thrombin-binding substance obtained using a recombinant DNA technique (r-UTM) (receptor) (chain): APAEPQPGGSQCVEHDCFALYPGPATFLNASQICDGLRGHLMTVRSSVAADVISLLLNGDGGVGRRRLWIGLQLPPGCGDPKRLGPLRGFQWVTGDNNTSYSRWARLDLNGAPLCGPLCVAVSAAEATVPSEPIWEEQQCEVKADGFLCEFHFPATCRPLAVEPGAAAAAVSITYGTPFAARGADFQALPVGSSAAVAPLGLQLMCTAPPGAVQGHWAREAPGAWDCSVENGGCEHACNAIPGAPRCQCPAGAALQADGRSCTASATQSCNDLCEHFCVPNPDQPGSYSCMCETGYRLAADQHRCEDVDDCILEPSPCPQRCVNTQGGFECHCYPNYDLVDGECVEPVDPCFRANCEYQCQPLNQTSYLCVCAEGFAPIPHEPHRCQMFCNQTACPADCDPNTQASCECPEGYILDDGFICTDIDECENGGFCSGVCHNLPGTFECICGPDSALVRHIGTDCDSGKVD

human urine derived thrombin-binding substance obtained using a recombinant DNA technique (r-UTM) (receptor)
clotting time, ATIII (+) (human antithrombin III 250 µg/ml) (bovine thrombin (bovine) [1]): 80.8 s | clotting time, ATIII (-) (bovine thrombin (bovine) [1]): 61.8 s | IC50 (time required for the coagulation) (bovine thrombin (bovine) [2]): 80 nM | Coagulation time (bovine thrombin (bovine) [3]): 29.6 s

human antithrombin III (from UniProt P01008)
clotting time, control, ATIII (+) (bovine thrombin (bovine) [1]): 49.5 s

bovine thrombin (from UniProt P00735) (enzyme)
clotting time, control, ATIII (-) (human fibrinogen (human)): 43.3 s | Coagulation time (sec), control [4]: 28.1 s
